The assay has as its target soluble recombinant cynomolgus TCR α/β-zipper protein (cynomolgus/rhesus monkey). Nature of the assay: ELISA, 2 µg/mL coated soluble recombinant cynomolgus TCR α/β-zipper protein. (An ELISA detects its analyte on a solid surface through an enzyme-linked reagent.)

The term EC50 (read off the curve) denotes the midpoint of the concentration-response curve.

soluble recombinant cynomolgus TCR α/β-zipper protein (cynomolgus/rhesus monkey), sequence (alpha, as listed by the source limits assumed, form in doubt, chain 1 of 2): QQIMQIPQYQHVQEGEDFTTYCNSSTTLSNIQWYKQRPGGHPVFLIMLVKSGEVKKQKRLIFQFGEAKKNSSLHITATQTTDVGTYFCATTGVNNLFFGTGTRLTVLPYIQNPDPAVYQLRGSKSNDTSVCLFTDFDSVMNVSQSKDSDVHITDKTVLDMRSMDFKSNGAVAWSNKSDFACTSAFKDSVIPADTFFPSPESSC
soluble recombinant cynomolgus TCR α/β-zipper protein (cynomolgus/rhesus monkey), sequence (beta, as listed by the source limits assumed, form in doubt, chain 2 of 2): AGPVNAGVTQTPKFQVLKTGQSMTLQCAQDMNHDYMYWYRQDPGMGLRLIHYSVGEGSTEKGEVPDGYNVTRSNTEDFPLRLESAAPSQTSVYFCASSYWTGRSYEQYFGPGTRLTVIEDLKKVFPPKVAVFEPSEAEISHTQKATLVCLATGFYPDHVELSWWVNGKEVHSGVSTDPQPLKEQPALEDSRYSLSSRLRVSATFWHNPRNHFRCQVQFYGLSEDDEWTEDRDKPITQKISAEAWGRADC

“anti-non-human primate/Rat TCRα/β antibody clone R73”: the EC50 (read off the curve) came to 0.1 nM.
